Residue numbers refer to the chain shown, from its start. Where two headings read alike, the source gives them in different places. Values belong to the binder of their own block, whether it stands above or below them.
Assays:
[1] = target: T1, purified recombinant IFNAR-1 extracellular fragment (human, UniProt P17181 28-436); experiment: Biacore, response on IFNAR-1 (flow cell 2) divided by response on anti-human IgG Fc (flow cell 4)
T1 construct: extracellular domain; also called soluble IFNAR-1; soluble IFNAR
T1 sequence (looked up): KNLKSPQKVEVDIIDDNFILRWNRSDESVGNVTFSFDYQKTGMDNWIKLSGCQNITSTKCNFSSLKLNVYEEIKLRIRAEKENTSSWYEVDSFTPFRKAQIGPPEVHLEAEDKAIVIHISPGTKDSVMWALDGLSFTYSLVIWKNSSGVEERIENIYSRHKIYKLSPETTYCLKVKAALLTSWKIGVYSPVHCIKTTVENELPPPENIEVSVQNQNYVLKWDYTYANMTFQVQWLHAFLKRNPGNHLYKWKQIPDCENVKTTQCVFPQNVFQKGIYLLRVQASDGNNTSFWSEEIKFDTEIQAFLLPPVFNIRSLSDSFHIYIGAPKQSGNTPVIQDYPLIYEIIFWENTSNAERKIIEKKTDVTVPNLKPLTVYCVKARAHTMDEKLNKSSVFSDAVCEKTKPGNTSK
Source text: A series of antibodies were constructed with reduced numbers of potential T-cell epitopes. These included heavy chain variants M3-A and M3-B in which residues were changed in CDR regions and DI M3 in which framework residues were altered. De-immunized light chains were also constructed termed K1-C, K1-D, K1-E and DI K1. The antibodies were expressed and purified before analysis by Biacore. A Biacore chip was used with IFNAR-1 coated on Flow cell 2 at 690 RU and anti-human IgG Fc on flow cell 4 at 5000 RU. Binding of the antibody to IFNAR-1 relative to anti-human IgG Fc was determined by the ratio of response at flow cell 2 divided by flow cell 4 (Fc2/Fc4).

[2] = target: T1, purified recombinant IFNAR-1 …; experiment: Biacore, maximal association on IFNAR-1 relative to M3K1
Source text: (§1) Pools 4 and 11 were selected for further study and the individual antibodies in each pool were produced and expressed separately. The sequences of these individual antibodies were as shown in SEQ ID NO:12 of FIG. 1F and SEQ ID NO: 13 of FIG. 1G. The data is presented as maximal association relative to M3K1. […]

[3] = target: T1, purified recombinant IFNAR-1 …; experiment: as above; remark: listed apart in the source
Source text: as §1

% activity relative to H3K1 [1]: 57%
Fc2/Fc4 [1]: 0.17
B1: M3 heavy chain with K1-CD light chain (antibody, human IgG4, V domains shown)
VH: EVQLLESGGGLVQPGGSLRLSCAFSGFTLSTSGMGIGWVRQAPGKGLEWVAHIWWDDDKYYNPSLKSRFTISRDTSKNTVYLQMNSLRAEDTAVYYCARNYYPYDAWFDYWGQGTLVTVS
VL: DIQMTQSPSSLSASVGDRVTITCSASTSINSNHLNWYQQKPGKAPKLLIYRTSILASGVPSRFSGSGSGTSFTLTISSLQPEDFATYYCQQGSNIPFTFGQGTKVEIKR
notes: also called M3 K1-C/D

% activity relative to M3K1 [2]: 126%
B2: M3-4 (X = L) heavy chain with K1 light chain (antibody, V domains shown)
VH: B1 VH with P103L
VL: DIQMTQSPSSLSASVGDRVTITCSASSSINSNHLHWYQQKPGKAPKLLIYRTSILASGVPSRFSGSGSGTSFTLTISSLQPEDFATYYCQQGSNIPFTFGQGTKVEIK
notes: the position is counted within CDR3, not on the entry; also called M3-4 L

Fc2/Fc4 [1]: -0.1
B3: M3 heavy chain with K1-DE light chain (antibody, human IgG4, V domains shown)
VH: B1 VH
VL: B1 VL with T27S, G92T
notes: also called M3 K1-D/E

% activity relative to M3K1 [3]: 67%
B4: M3-11 (X = D) heavy chain with K1 light chain (antibody, V domains shown)
VH: B1 VH with Y110D
VL: B2 VL
notes: Position counted within VH CDR3; also called M3-11 D

% activity relative to H3K1 [1]: 17%
Fc2/Fc4 [1]: 0.05
B5: M3-A heavy chain with K1 light chain (antibody, human IgG4, V domains shown)
VH: B1 VH with M34A
VL: B1 VL with T27S, N35H
notes: also called M3-A K1

% activity relative to M3K1 [3]: 63%
B6: M3-11 (X = G) heavy chain with K1 light chain (antibody, V domains shown)
VH: B1 VH with Y110G
VL: B2 VL
notes: Position counted within VH CDR3; also called M3-11 G

% activity relative to H3K1 [1]: 30%
Fc2/Fc4 [1]: 0.09
B7: M3 heavy chain with K1-D light chain (antibody, human IgG4, V domains shown)
VH: B1 VH
VL: B1 VL with T27S
notes: also called M3 K1-D

% activity relative to M3K1 [2]: 114%
B8: M3-4 (X = G) heavy chain with K1 light chain (antibody, V domains shown)
VH: B1 VH with P103G
VL: B2 VL
notes: Position counted within VH CDR3; also called M3-4 G

Fc2/Fc4 [1]: -0.05
B9: M3 heavy chain with K1-E light chain (antibody, human IgG4, V domains shown)
VH: B1 VH
VL: B1 VL with T27S, N35H, G92T
notes: also called M3 K1-E

% activity relative to M3K1 [3]: 104%
B10: M3-11 (X = H) heavy chain with K1 light chain (antibody, V domains shown)
VH: B1 VH with Y110H
VL: B2 VL
notes: Position counted within VH CDR3; also called M3-11 H

% activity relative to M3K1 [2]: 122%
B11: M3-4 (X = V) heavy chain with K1 light chain (antibody, V domains shown)
VH: B1 VH with P103V
VL: B2 VL
notes: Position counted within VH CDR3; also called M3-4 V

% activity relative to M3K1 [2]: 93%
B12: M3-4 (X = W) heavy chain with K1 light chain (antibody, V domains shown)
VH: B1 VH with P103W
VL: B2 VL
notes: Position counted within VH CDR3; also called M3-4 W

% activity relative to M3K1 [3]: 81%
B13: M3-11 (X = I) heavy chain with K1 light chain (antibody, V domains shown)
VH: B1 VH with Y110I
VL: B2 VL
notes: Position counted within VH CDR3; also called M3-11 I

% activity relative to M3K1 [2]: 86%
B14: M3-4 (X = K) heavy chain with K1 light chain (antibody, V domains shown)
VH: B1 VH with P103K
VL: B2 VL
notes: Position counted within VH CDR3; also called M3-4 K

% activity relative to M3K1 [3]: 64%
B15: M3-11 (X = C) heavy chain with K1 light chain (antibody, V domains shown)
VH: B1 VH with Y110C
VL: B2 VL
notes: Position counted within VH CDR3; also called M3-11 C

% activity relative to M3K1 [2]: 110%
B16: M3-4 (X = S) heavy chain with K1 light chain (antibody, V domains shown)
VH: B1 VH with P103S
VL: B2 VL
notes: Position counted within VH CDR3; also called M3-4 S

% activity relative to M3K1 [2]: 79%
B17: M3-4 (X = H) heavy chain with K1 light chain (antibody, V domains shown)
VH: B1 VH with P103H
VL: B2 VL
notes: Position counted within VH CDR3; also called M3-4 H

% activity relative to M3K1 [2]: 100%
B18: M3-4 (X = D) heavy chain with K1 light chain (antibody, V domains shown)
VH: B1 VH with P103D
VL: B2 VL
notes: Position counted within VH CDR3; also called M3-4 D

% activity relative to H3K1 [1]: 43%
Fc2/Fc4 [1]: 0.13
B19: M3-AB heavy chain with K1 light chain (antibody, human IgG4, V domains shown)
VH: B1 VH with M34A, S67A
VL: B1 VL with T27S, N35H
notes: also called M3-A/B K1

% activity relative to M3K1 [2]: 123%
B20: M3-4 (X = C) heavy chain with K1 light chain (antibody, V domains shown)
VH: B1 VH with P103C
VL: B2 VL
notes: Position counted within VH CDR3; also called M3-4 C

% activity relative to M3K1 [2]: 106%
B21: M3-4 (X = I) heavy chain with K1 light chain (antibody, V domains shown)
VH: B1 VH with P103I
VL: B2 VL
notes: Position counted within VH CDR3; also called M3-4 I

Fc2/Fc4 [1]: -0.1
B22: M3 heavy chain with K1-CDE light chain (antibody, human IgG4, V domains shown)
VH: B1 VH
VL: B1 VL with G92T
notes: also called M3 K1-C/D/E

% activity relative to M3K1 [3]: 105%
B23: M3-11 (X = E) heavy chain with K1 light chain (antibody, V domains shown)
VH: B1 VH with Y110E
VL: B2 VL
notes: Position counted within VH CDR3; also called M3-11 E

% activity relative to M3K1 [2]: 128%
B24: M3-4 (X = E) heavy chain with K1 light chain (antibody, V domains shown)
VH: B1 VH with P103E
VL: B2 VL
notes: Position counted within VH CDR3; also called M3-4 E

% activity relative to M3K1 [3]: 93%
B25: M3-11 (X = F) heavy chain with K1 light chain (antibody, V domains shown)
VH: B1 VH with Y110F
VL: B2 VL
notes: Position counted within VH CDR3; also called M3-11 F

% activity relative to M3K1 [2]: 103%
B26: M3-4 (X = T) heavy chain with K1 light chain (antibody, V domains shown)
VH: B1 VH with P103T
VL: B2 VL
notes: Position counted within VH CDR3; also called M3-4 T

% activity relative to M3K1 [2]: 101%
B27: M3-4 (X = M) heavy chain with K1 light chain (antibody, V domains shown)
VH: B1 VH with P103M
VL: B2 VL
notes: Position counted within VH CDR3; also called M3-4 M

% activity relative to M3K1 [2]: 107%
B28: M3-4 (X = A) heavy chain with K1 light chain (antibody, V domains shown)
VH: B1 VH with P103A
VL: B2 VL
notes: Position counted within VH CDR3; also called M3-4 A

% activity relative to M3K1 [2]: 49%
B29: M3-4 (X = N) heavy chain with K1 light chain (antibody, V domains shown)
VH: B1 VH with P103N
VL: B2 VL
notes: Position counted within VH CDR3; also called M3-4 N

% activity relative to M3K1 [2]: 106%
B30: M3-4 (X = R) heavy chain with K1 light chain (antibody, V domains shown)
VH: B1 VH with P103R
VL: B2 VL
notes: Position counted within VH CDR3; also called M3-4 R

% activity relative to H3K1 [1]: 23%
Fc2/Fc4 [1]: 0.07
B31: M3-AB heavy chain with K1-CD light chain (antibody, human IgG4, V domains shown)
VH: B1 VH with M34A, S67A
VL: B1 VL
notes: also called M3-A/B K1-C/D

% activity relative to M3K1 [3]: 93%
B32: M3-11 (X = A) heavy chain with K1 light chain (antibody, V domains shown)
VH: B1 VH with Y110A
VL: B2 VL
notes: Position counted within VH CDR3; also called M3-11 A

— US20050208041A1 (Bristol-Myers Squibb, published 2005)
